What was measured:
[1] = biological target: recombinant UBE3A protein (Homo sapiens (Human)) (UniProt Q05086); experiment: 3-step Simoa; capture Novus; UBE3A 10 ng/ml
[2] = biological target: recombinant UBE3A protein (Homo sapiens (Human)) (UniProt Q05086); experiment: 3-step Simoa; capture GTX; UBE3A 1 ng/ml
[3] = biological target: recombinant UBE3A protein (Homo sapiens (Human)) (UniProt Q05086); experiment: 2-step Simoa; capture Novus; UBE3A 10 ng/ml
[4] = biological target: recombinant UBE3A protein (Homo sapiens (Human)) (UniProt Q05086); experiment: 3-step Simoa; capture GTX; UBE3A 0.1 ng/ml
[5] = biological target: recombinant UBE3A protein (Homo sapiens (Human)) (UniProt Q05086); experiment: 3-step Simoa; capture Novus; UBE3A 0.1 ng/ml
[6] = biological target: recombinant UBE3A protein (Homo sapiens (Human)) (UniProt Q05086); experiment: 2-step Simoa; capture Novus; UBE3A 0.01 ng/ml
[7] = biological target: recombinant UBE3A protein (Homo sapiens (Human)) (UniProt Q05086); experiment: 3-step Simoa; capture Novus; UBE3A 0.01 ng/ml
[8] = biological target: recombinant UBE3A protein (Homo sapiens (Human)) (UniProt Q05086); experiment: 2-step Simoa; capture Novus; UBE3A 0.1 ng/ml
[9] = biological target: recombinant UBE3A protein (Homo sapiens (Human)) (UniProt Q05086); experiment: 2-step Simoa; capture Novus; UBE3A 1 ng/ml
[10] = biological target: recombinant UBE3A protein (Homo sapiens (Human)) (UniProt Q05086); experiment: 2-step Simoa; capture MS 3E5; UBE3A 1 ng/ml
[11] = biological target: recombinant UBE3A protein (Homo sapiens (Human)) (UniProt Q05086); experiment: 2-step Simoa; capture MS 3E5; UBE3A 0.01 ng/ml
[12] = biological target: recombinant UBE3A protein (Homo sapiens (Human)) (UniProt Q05086); experiment: 3-step Simoa; capture GTX; UBE3A 10 ng/ml
[13] = biological target: recombinant UBE3A protein (Homo sapiens (Human)) (UniProt Q05086); experiment: 2-step Simoa; capture GTX; UBE3A 1 ng/ml
[14] = biological target: recombinant UBE3A protein (Homo sapiens (Human)) (UniProt Q05086); experiment: 3-step Simoa; capture MS 3E5; UBE3A 0.010 ng/ml
[15] = biological target: recombinant UBE3A protein (Homo sapiens (Human)) (UniProt Q05086); experiment: 3-step Simoa; capture MS 3E5; UBE3A 10 ng/ml
[16] = biological target: recombinant UBE3A protein (Homo sapiens (Human)) (UniProt Q05086); experiment: 3-step Simoa; capture MS 3E5; UBE3A 0.1 ng/ml
[17] = biological target: recombinant UBE3A protein (Homo sapiens (Human)) (UniProt Q05086); experiment: 3-step Simoa; capture Novus; UBE3A 1 ng/ml
[18] = biological target: recombinant UBE3A protein (Homo sapiens (Human)) (UniProt Q05086); experiment: 2-step Simoa; capture MS 3E5; UBE3A 0.1 ng/ml
[19] = biological target: recombinant UBE3A protein (Homo sapiens (Human)) (UniProt Q05086); experiment: 2-step Simoa; capture GTX; UBE3A 0.1 ng/ml
[20] = biological target: recombinant UBE3A protein (Homo sapiens (Human)) (UniProt Q05086); experiment: 3-step Simoa; capture GTX; UBE3A 0.01 ng/ml
[21] = biological target: recombinant UBE3A protein (Homo sapiens (Human)) (UniProt Q05086); experiment: 2-step Simoa; capture MS 3E5; UBE3A 10 ng/ml
[22] = biological target: recombinant UBE3A protein (Homo sapiens (Human)) (UniProt Q05086); experiment: 2-step Simoa; capture GTX; UBE3A 10 ng/ml
[23] = biological target: recombinant UBE3A protein (Homo sapiens (Human)) (UniProt Q05086); experiment: 3-step Simoa; capture MS 3E5; UBE3A 1 ng/ml
[24] = biological target: recombinant UBE3A protein (Homo sapiens (Human)) (UniProt Q05086); experiment: 2-step Simoa; capture GTX; UBE3A 0.01 ng/ml
[25] = biological target: UBE3A standard protein (ab206157, Abcam) (Homo sapiens (Human)) (UniProt Q05086); experiment: Singulex sandwich; capture GTX101092; UBE3A 5000 pg/ml
[26] = biological target: UBE3A standard protein (ab206157, Abcam) (Homo sapiens (Human)) (UniProt Q05086); experiment: Singulex sandwich; capture GTX101092; UBE3A 2500 pg/ml
[27] = biological target: UBE3A standard protein (ab206157, Abcam) (Homo sapiens (Human)) (UniProt Q05086); experiment: Singulex sandwich; capture GTX101092; UBE3A 10000 pg/ml
[28] = biological target: UBE3A standard protein (ab206157, Abcam) (Homo sapiens (Human)) (UniProt Q05086); experiment: Singulex sandwich; capture GTX101092; UBE3A 1250 pg/ml
[29] = biological target: UBE3A standard protein (Abcam, ab125736) (Homo sapiens (Human)) (UniProt Q05086); experiment: Singulex sandwich; capture GTX10488; interpolated UBE3A 78.6 pg/mL
[30] = biological target: UBE3A standard protein (Abcam, ab125736) (Homo sapiens (Human)) (UniProt Q05086); experiment: Singulex sandwich; capture GTX10488; interpolated UBE3A 31.06 pg/mL
[31] = biological target: UBE3A standard protein (Abcam, ab125736) (Homo sapiens (Human)) (UniProt Q05086); experiment: Singulex sandwich; capture GTX10488; interpolated UBE3A 2039.33 pg/mL
[32] = biological target: UBE3A standard protein (Abcam, ab125736) (Homo sapiens (Human)) (UniProt Q05086); experiment: Singulex sandwich; capture GTX10488; interpolated UBE3A 3.39 pg/mL
[33] = biological target: UBE3A standard protein (Abcam, ab125736) (Homo sapiens (Human)) (UniProt Q05086); experiment: Singulex sandwich; capture GTX10488; interpolated UBE3A 10.59 pg/mL
[34] = biological target: UBE3A standard protein (ab206157, Abcam) (Homo sapiens (Human)) (UniProt Q05086); experiment: Singulex sandwich; capture GTX101092; UBE3A 156.25 pg/ml
[35] = biological target: UBE3A standard protein (ab206157, Abcam) (Homo sapiens (Human)) (UniProt Q05086); experiment: Singulex sandwich; capture GTX101092; UBE3A 312.5 pg/ml
[36] = biological target: UBE3A standard protein (Abcam, ab125736) (Homo sapiens (Human)) (UniProt Q05086); experiment: Singulex sandwich; capture GTX10488; interpolated UBE3A 256.41 pg/mL
[37] = biological target: UBE3A standard protein (ab206157, Abcam) (Homo sapiens (Human)) (UniProt Q05086); experiment: Singulex sandwich; capture GTX101092; UBE3A 19.531 pg/ml
[38] = biological target: UBE3A standard protein (Abcam, ab125736) (Homo sapiens (Human)) (UniProt Q05086); experiment: Singulex sandwich; capture GTX10488; interpolated UBE3A 661.46 pg/mL
[39] = biological target: UBE3A standard protein (ab206157, Abcam) (Homo sapiens (Human)) (UniProt Q05086); experiment: Singulex sandwich; capture GTX101092; UBE3A 39.063 pg/ml
[40] = biological target: UBE3A standard protein (ab206157, Abcam) (Homo sapiens (Human)) (UniProt Q05086); experiment: Singulex sandwich; capture GTX101092; UBE3A 9.766 pg/ml
[41] = biological target: UBE3A standard protein (Abcam, ab125736) (Homo sapiens (Human)) (UniProt Q05086); experiment: Singulex sandwich; capture GTX10488; interpolated UBE3A ND
[42] = biological target: UBE3A standard protein (ab206157, Abcam) (Homo sapiens (Human)) (UniProt Q05086); experiment: Singulex sandwich; capture GTX101092; UBE3A 78.125 pg/ml

2F6 (WH0007337M1-100 ug, Millipore-Sigma) (antibody)
AEB1 [1]: 0.0249 | Ave AEB [1]: 0.0249 | Signal to Background [1]: 1.04 | AEB1 [2]: 0.0409 | AEB2 [2]: 0.0476 | Ave AEB [2]: 0.0443 | Signal to Background [2]: 1 | AEB1 [3]: 0.0475 | AEB2 [3]: 0.045 | Ave AEB [3]: 0.0462 | Signal to Background [3]: 0.92 | AEB1 [4]: 0.0432 | AEB2 [4]: 0.0414 | Ave AEB [4]: 0.0423 | Signal to Background [4]: 0.96 | AEB1 [5]: 0.0269 | AEB2 [5]: 0.0251 | Ave AEB [5]: 0.026 | Signal to Background [5]: 1.09 | AEB1 [6]: 0.0511 | AEB2 [6]: 0.0431 | Ave AEB [6]: 0.0471 | Signal to Background [6]: 0.95 | AEB1 [7]: 0.0221 | AEB2 [7]: 0.0242 | Ave AEB [7]: 0.0232 | Signal to Background [7]: 0.97 | AEB1 [8]: 0.047 | AEB2 [8]: 0.0451 | Ave AEB [8]: 0.046 | Signal to Background [8]: 0.93 | AEB1 [9]: 0.048 | AEB2 [9]: 0.0444 | Ave AEB [9]: 0.0462 | Signal to Background [9]: 0.93 | AEB1 [10]: 0.0234 | AEB2 [10]: 0.0226 | Ave AEB [10]: 0.023 | Signal to Background [10]: 1.39 | AEB1 [11]: 0.0177 | AEB2 [11]: 0.016 | Ave AEB [11]: 0.0168 | Signal to Background [11]: 1.01 | AEB1 [12]: 0.047 | AEB2 [12]: 0.0463 | Ave AEB [12]: 0.0466 | Signal to Background [12]: 1.05 | AEB1 [13]: 0.0965 | AEB2 [13]: 0.095 | Ave AEB [13]: 0.0957 | Signal to Background [13]: 1.04 | AEB1 [14]: 0.0052 | AEB2 [14]: 0.0068 | Ave AEB [14]: 0.006 | Signal to Background [14]: 0.792 | AEB1 [15]: 0.0203 | AEB2 [15]: 0.0195 | Ave AEB [15]: 0.0199 | Signal to Background [15]: 2.62 | AEB1 [16]: 0.0078 | AEB2 [16]: 0.0073 | Ave AEB [16]: 0.0075 | Signal to Background [16]: 0.99 | AEB1 [17]: 0.0277 | AEB2 [17]: 0.024 | Ave AEB [17]: 0.0259 | Signal to Background [17]: 1.08 | AEB1 [18]: 0.0191 | AEB2 [18]: 0.018 | Ave AEB [18]: 0.0186 | Signal to Background [18]: 1.12 | AEB1 [19]: 0.0906 | AEB2 [19]: 0.0965 | Ave AEB [19]: 0.0936 | Signal to Background [19]: 1.02 | AEB1 [20]: 0.043 | AEB2 [20]: 0.0459 | Ave AEB [20]: 0.0445 | Signal to Background [20]: 1.01 | AEB1 [21]: 0.0582 | AEB2 [21]: 0.0565 | Ave AEB [21]: 0.0574 | Signal to Background [21]: 3.46 | AEB1 [22]: 0.109 | AEB2 [22]: 0.109 | Ave AEB [22]: 0.109 | Signal to Background [22]: 1.19 | AEB1 [23]: 0.009 | AEB2 [23]: 0.0088 | Ave AEB [23]: 0.0089 | Signal to Background [23]: 1.17 | AEB1 [24]: 0.0965 | AEB2 [24]: 0.0944 | Ave AEB [24]: 0.0955 | Signal to Background [24]: 1.04

anti-UBE3A antibody H00007337-M02 (AbNova)
AvgDE [25]: 10700 DE | AvgDE [26]: 6430 DE | AvgDE [27]: 12700 DE | AvgDE [28]: 4130 DE | DE Mean [29]: 1770 DE | DE S/N [29]: 4.3 | EP Mean [29]: 291000 EP | S-N [29]: 1170 DE | DE Mean [30]: 925 DE | DE S/N [30]: 2.3 | EP Mean [30]: 143000 EP | S-N [30]: 470 DE | DE Mean [31]: 13600 DE | DE S/N [31]: 33.1 | EP Mean [31]: 5.69e+06 EP | S-N [31]: 13000 DE | DE Mean [32]: 461 DE | DE S/N [32]: 1.1 | EP Mean [32]: 71800 EP | S-N [32]: 13 DE | DE Mean [33]: 585 DE | DE S/N [33]: 1.4 | EP Mean [33]: 91300 EP | S-N [33]: 136 DE | AvgDE [34]: 922 DE | AvgDE [35]: 1610 DE | DE Mean [36]: 4910 DE | DE S/N [36]: 11.9 | EP Mean [36]: 926000 EP | S-N [36]: 4290 DE | AvgDE [37]: 208 DE | DE Mean [38]: 9340 DE | DE S/N [38]: 22.7 | EP Mean [38]: 2.27e+06 EP | S-N [38]: 8460 DE | AvgDE [39]: 289 DE | AvgDE [40]: 112 DE | DE S/N [41]: 1 | AvgDE [42]: 559 DE

From patent publication US12467929
